Legend:
APS patient plasma = experiment: Surface plasmon resonance (BIAcore): APS patient plasma/serum over immobilized β2GPI proteins; assay type: binding, human; parameters: key: Req = fitted equilibrium plateau BIAcore response; conditions: for Req (mean ± sem): diluted 1:1
Source text: (§1) Reagents. CM5 chips, NHS and EDC and HBS-EP buffer were from BIAcore. Human haptoglobin (phenotyope 1—1), a protein containing the short consensus repeat motif found in β2GPI, was immobilized in a separate flow cell on the chip and used as a negative control. Recombinant β2GPI and domain-deletion mutants of β2GPI were expressed in Tn5 cells using the baculovirus protein expression system and purified from the supernatants by nickel-chelation affinity column. Iverson et al. (1998) Proc. Natl. Acad. Sci. USA 95:15542-15546. Normal human plasma samples were purchased (George King Biomedical) or obtained in-house. Patient plasma samples from individuals diagnosed with either primary or secondary (to lupus) antiphospholipid antibody syndrome were obtained from a number of clinical sources.
(§2) The 55 controls used in this study were derived from a heterogenous sample. Thirty control samples (15 male; 15 female; mean age 34 yrs, range 19-45 yrs) purchased from George King Bio-Medical (Overland Park, Kans.), 5 local volunteers (3 male, 2 female), 2 pooled commercial sources and 18 blood bank donors of unknown origin were included in the analysis. The patient samples were collected from several sources and included patients with histories of venous thrombosis, arterial occlusions, cerebrovascular occlusions, multiple miscarriages and thrombocytopenia. All patients included in the study had IgG antiphospholipid antibody level (GPL) levels>20 by internal assay.
Total IgG fraction was isolated from plasma using Immunopure Plus protein G agarose beads and Immunopure IgG binding and elution buffers according to the manufacturers recommendation (Pierce).
(§3) Surface Plasmon Resonance. All experiments were performed using a BIAcore™ 2000 instrument at 25° C. with a flow rate of 10 μL/minute. Chip equilibration and binding studies were performed with degassed HBS-EP buffer, which consists of 0.01 M HEPES pH 7.4, 0.15 M NaCl, 3 mM EDTA and 0.005% (v/v) surfactant P20. Covalent coupling of protein ligands through their free amino groups to the CM5 chip was accomplished by flowing 40 μL of 0.05 M NHS/0.2M EDC over the chip to activate the chip, followed by exposure to the appropriate protein ligand. Recombinant β2GPI(His)6, domain-deletion mutants of β2GPI and haptoglobin were immobilized by flowing 50 μL of a 25 μg/mL solution in 10 mM acetate, (pH 4.8) over the NHS-activated CM5 chip. The excess reactive groups on the chip surface are then quenched with 40 μL of 1 M ethanoloamine, (pH 8.5). Human plasma samples (130 μL) were diluted 1:1 with HBS-EP, flowed over the β2GPI chip, and response values were collected for 780 seconds. The chips were regenerated between sample exposures with 80 μL of 0.1 M glycine-HCl (pH 2.1), 0.1 M NaCl. Since the approach to binding equilibrium was incomplete during the measurement period, the equilibrium binding value (Req) was determined by fitting the association curves to the following equation using the manufacturers software (BiaEvaluation version 2.2, Uppsala, Sweden) Rt=Req(I−e^−ks(t−t0))+R0 where Rt is the measured BIAcore response at time t, Req is the equilibrium plateau response, t is time, t0 is initial time, k, is an apparent association constant (ks=kaC+kdis, where ka is the association constant, C is the analyte concentration and kdis is the dissociation constant), and R0 is a response offset. In some experiments total IgG fractions from human plasma samples were obtained from binding to and acid elution from protein G. The plasma remaining after binding to protein G was remixed with fresh protein G beads and isolated as IgG-stripped plasma. Neutralized IgG preparations and IgG-stripped plasma diluted 1:1 with buffer were flowed over the β2GPI chip as described above. Results and Discussion

Normal human plasma = experiment: Surface plasmon resonance (BIAcore): control plasma/serum over immobilized β2GPI proteins; assay type: binding; conditions: serum of 55 controls; for Req (mean ± sem): diluted 1:1
Source text: as §1, §2
as §3, with “Neutralized IgG preparations and IgG-stripped plasma diluted 1:1 with buffer were flowed over the β2GPI chip as described above. Results and Discussion” left out

[1] = target: affinity purified β2GPI-dependent antiphospholipid antibody from patient 6509; experiment: comp. inhibition ELISA
[2] = target: affinity purified β2GPI-dependent antiphospholipid antibody from patient 7101; experiment: comp. inhibition ELISA
[3] = target: β2GPI-dependent antiphospholipid antibody from patient 6701; experiment: comp. inhibition ELISA

B1: 12345: recombinant full length human β2GPI (domains 1-5) with C-terminal GlyHis6, baculovirus expressed (protein)
chain: GRTCPKPDDLPFSTVVPLKTFYEPGEEITYSCKPGYVSRGGMRKFICPLTGLWPINTLKCTPRVCPFAGILENGAVRYTTFEYPNTISFSCNTGFYLNGADSAKCTEEGKWSPELPVCAPIICPPPSIPTFATLRVYKPSAGNNSLYRDTAVFECLPQHAMFGNDTITCTTHGNWTKLPECREVKCPFPSRPDNGFVNYPAKPTLYYKDKATFGCHDGYSLDGPEEIECTKLGNWSAMPSCKASCKLPVKKATVVYQGERVKIQEKFKNGMLHGDKVSFFCKNKEKKCSYTEDAQCIDGTIEVPKCFKEHSSLAFWKTDASDVKPCGHHHHHH
BIAcore Req (APS patient plasma; non-selective patient 6117, IgG-stripped Plasma (1:2)): 0 | BIAcore Req (APS patient plasma; non-selective patient 6117, Total IgG (1:4)): 120 | BIAcore Req (APS patient plasma; non-selective patient 6117, Whole Plasma (1:2)): 324 | BIAcore Req (APS patient plasma; non-selective patient 6194, IgG-stripped Plasma (1:2)): 0 | BIAcore Req (APS patient plasma; non-selective patient 6194, Total IgG (1:4)): 470 | BIAcore Req (APS patient plasma; non-selective patient 6194, Whole Plasma (1:2)): 2046 | BIAcore Req (APS patient plasma; non-selective patient 6611, IgG-stripped Plasma (1:2)): 0 | BIAcore Req (APS patient plasma; non-selective patient 6611, Total IgG (1:4)): 251 | BIAcore Req (APS patient plasma; non-selective patient 6611, Whole Plasma (1:2)): 892 | BIAcore Req (APS patient plasma; non-selective patient 6627, IgG-stripped Plasma (1:2)): 0 | BIAcore Req (APS patient plasma; non-selective patient 6627, Total IgG (1:4)): 132 | BIAcore Req (APS patient plasma; non-selective patient 6627, Whole Plasma (1:2)): 324 | BIAcore Req (APS patient plasma; non-selective patient 6649, IgG-stripped Plasma (1:2)): 0 | BIAcore Req (APS patient plasma; non-selective patient 6649, Total IgG (1:4)): 253 | BIAcore Req (APS patient plasma; non-selective patient 6649, Whole Plasma (1:2)): 758 | BIAcore Req (APS patient plasma; non-selective patient 7013, IgG-stripped Plasma (1:2)): 0 | BIAcore Req (APS patient plasma; non-selective patient 7013, Total IgG (1:4)): 115 | BIAcore Req (APS patient plasma; non-selective patient 7013, Whole Plasma (1:2)): 241 | BIAcore Req (APS patient plasma; patient 6207, IgG-stripped Plasma (1:2)): 0 | BIAcore Req (APS patient plasma; patient 6207, Total IgG (1:4)): 480 | BIAcore Req (APS patient plasma; patient 6207, Whole Plasma (1:2)): 1450 | BIAcore Req (APS patient plasma; patient 6501, IgG-stripped Plasma (1:2)): 0 | BIAcore Req (APS patient plasma; patient 6501, Total IgG (1:4)): 732 | BIAcore Req (APS patient plasma; patient 6501, Whole Plasma (1:2)): 1526 | BIAcore Req (APS patient plasma; patient 6515, IgG-stripped Plasma (1:2)): 0 | BIAcore Req (APS patient plasma; patient 6515, Total IgG (1:4)): 440 | BIAcore Req (APS patient plasma; patient 6515, Whole Plasma (1:2)): 1024 | BIAcore Req (APS patient plasma; patient 6601, IgG-stripped Plasma (1:2)): 0 | BIAcore Req (APS patient plasma; patient 6601, Total IgG (1:4)): 266 | BIAcore Req (APS patient plasma; patient 6601, Whole Plasma (1:2)): 792 | BIAcore Req (APS patient plasma; patient 6626, IgG-stripped Plasma (1:2)): 49 | BIAcore Req (APS patient plasma; patient 6626, Total IgG (1:4)): 1132 | BIAcore Req (APS patient plasma; patient 6626, Whole Plasma (1:2)): 1622 | BIAcore Req (APS patient plasma; patient 6642, IgG-stripped Plasma (1:2)): 48 | BIAcore Req (APS patient plasma; patient 6642, Total IgG (1:4)): 480 | BIAcore Req (APS patient plasma; patient 6642, Whole Plasma (1:2)): 811 | BIAcore Req (APS patient plasma; patient 6701, IgG-stripped Plasma (1:2)): 0 | BIAcore Req (APS patient plasma; patient 6701, Total IgG (1:4)): 460 | BIAcore Req (APS patient plasma; patient 6701, Whole Plasma (1:2)): 952 | BIAcore Req (APS patient plasma; patient 6703, IgG-stripped Plasma (1:2)): 0 | BIAcore Req (APS patient plasma; patient 6703, Total IgG (1:4)): 556 | BIAcore Req (APS patient plasma; patient 6703, Whole Plasma (1:2)): 1001 | BIAcore Req (APS patient plasma; patient 7015, IgG-stripped Plasma (1:2)): 0 | BIAcore Req (APS patient plasma; patient 7015, Total IgG (1:4)): 864 | BIAcore Req (APS patient plasma; patient 7015, Whole Plasma (1:2)): 2092 | BIAcore Req (APS patient plasma; patient 7201, IgG-stripped Plasma (1:2)): 0 | BIAcore Req (APS patient plasma; patient 7201, Total IgG (1:4)): 292 | BIAcore Req (APS patient plasma; patient 7201, Whole Plasma (1:2)): 603 | Median Req (APS patient plasma; serum of 106 APS patients (GPL ≧ 20)): 635 | Req (mean ± sem) (APS patient plasma; serum of 106 APS patients (GPL ≧ 20), listed as D1-5): 730 ± 42 | Req (mean ± sem) (APS patient plasma; serum of 106 APS patients (GPL ≧ 20), listed as β2-GPI(D1-5)): 730 | Median Req (Normal human plasma): 201 | Req (mean ± sem) (Normal human plasma; listed as D1-5): 328 ± 52 | Req (mean ± sem) (Normal human plasma; listed as β2-GPI(D1-5)): 328

B2: recombinant β2GPI domain 5 with GlyHis6 (----5) (protein)
chain: GRASCKLPVKKATVVYQGERVKIQEKFKNGMLHGDKVSFFCKNKEKKCSYTEDAQCIDGTIEVPKCFKEHSSLAFWKTDASDVKPCGHHHHHH
IC50 [1]: > 47 µM | Max inhibition [1]: 10% | IC50 [2]: > 47 µM | Max inhibition [2]: 5% | IC50 [3]: > 47 µM | Max inhibition [3]: 10%

Reference: patent US6858210B1, “Therapeutic and diagnostic domain 1 β2GPI polypeptides and methods of using same” (La Jolla Pharmaceutical Co., priority 1998, dated 2005)
